B1: SEQ ID NO: 76: Thermovirga lienii thioesterase (protein, listed as Thermovirga lienii)
chain: MYEHNFRISYSQAGALGRLKLTGAMNLCQDIADDHAERVGVSVADLLKQSKTWVLHRFKMTIQTMPQRGDLVTIKTWYRPEKNLYSLRNFEMLDCNGKKLLSVQTSWVVVDMNRGRPLRLDRVMPEAYDKNKDENLEVSFQELLLPEKVDVKKTIQVAVTDLDMNFHVNNVHYLRWALDTIPVEILKEYKPKGVEIAFKRPAFYGDSVISEVGIDKNSCSILCRHHIYGEKDGQSMAVISTEWEKISREER
modifications: Thermovirga lienii (strain ATCC BAA-1197 / DSM 17291 / Cas60314)
notes: Thermovirga lienii thioesterase
B2: SEQ ID NO: 75: Clostridium thermocellum thioesterase (protein, listed as Clostridium thermocellum)
chain: MQKKRFSKKYEVHYYEINSMQEATLLSLLNYMEDCAISHSTSAGYGVNELLAADAGWVLYRWLIKIDRLPKLGETITVQTWASSFERFYGNREFIVLDGRDNPIVKASSVWIYFNIKKRKPMRIPLEMGDAYGIDETRALEEPFTDFDFDFEPKVIEEFTVKRSDIDTNSHVNNKKYVDWIMETVPQQIYDNYKVTSLQIIYKKESSLGSGIKAGCVIDEQNTDNPRLLHKIWDKNTGLELVSAETIWQKIQS
modifications: Clostridium thermocellum (strain ATCC 27405 / DSM 1237 / NBRC 103400 / NCIMB 10682 / NRRL B-4536 / VPI 7372)
notes: Clostridium thermocellum thioesterase
B3: SEQ ID NO: 208: Ascaris suum carboxylate reductase (protein, listed as Ascaris suum)
chain: MRYWWKTSHSNYKLDAVCDINNQTRELPVSVASCKDGSRVAACLDGDHLAPFIHEDALTLYEGVRRGLRVSNNGPMLGYRKKQPDGSEPYVWLTYKEVIDRAVDFAYGLLDVGIPAGQKTFIGVYAKNRPEWVIAEQGTYNNNSVLVPLYETLGPDACTFIINQSEMSMVICDTEVKAAGLLKEKENIPTLKYLVVMEDYTNGLREAAAREGVYVYHFLDIEKRGREFVNKPALQIPSPGDVCTICYTSGTTGAPKGVMLTHGNVIAAATALTFVRNINFCETDVVISFLPLAHMFERLLECIIFQTGAHVGFFSGDIRRLPEDIKELRPTVIPLVPRVLNRIYDKVMSEVNKSFIKKAVFHFALAFKVRELRNGIVRNDSVFDKLVFNKIRDAMGGRVKLMVTGSAPLAEKVMTFARAAMGCVVLEGYGQTECAAASTLGIEADTRAGHVGIPSICNAVKLVDVPELEYYAKDMVGEVCIRGFNVFKGYYKNDELTREVLDDQGWLHTGDVGRWTENGTLQIIDRKKHIFKLSQGEYVAPEKIEGIYARSKYVAQSFVHGESLKTCLVGVIVPDPEALERVAAERFGLKDVKLKELCSNEAVRQLILEDITAVGKKAGLFSFEQVKDIFLTPDAFSVGNDLLTPTLKNKRPKLKEHFAAQLESMYSKLN
B4: SEQ ID NO: 210: Rhizopus microspores carboxylate reductase (protein, listed as Rhizopus microsporus)
chain: MPPAFDPPYSVPVPGSEKKEGETVPFRHFKFADKLVDHPEGVFTAWDIFVHGYDSAGDKPFMGTRRIEDGVAKEYVWQNYPEVRTRIENFGKGMLHLGLKRQHAIGVYSVNRPEWTMTEIASYRQAFMIVALYDTLGAEAMEYIINQTSMEYIVLSADKLDNIIRLKSQIATISTAIVMDDEVDDAKKAEAEAAGIKVYTFRQVETMGSEITSESDLPKPEDIATICYTSGTTGVPKGAVITQANCVAAISAIAALGDKGTFADVNSDDIYISYLPLAHVFERVAQGIHLFRGAAIGYYQGDTLKLLDDIAELRPTVFCSVPRLFNRIYDKVLAGVKAKGGVSAYLFNTAFQSKKRHLSKTVHHWLWDRVVFTQIRQKLGGRLRFILSGSAPVSPDVMDFMRICFSAKVFEGYGQTENFCGGALTITDDNTSGVVGAPFPCSEIKLVDVPEMEYFSTDKPFPRGEICIRGTSIMQGYYQLPEKTAEAIDKDGWLHTGDIGQFDSANRLVIIDRLKNIFKLSQGEYIAPEKIEGVYQKHELVAQAFIYGDSMQSSLVGIIVPDKDAFSAWAKEHFPTVEDPYASDEVKKALLKELTAYGKENDLKGFEQMRSVYLTPNEFSIENDLLTPTFKLRRENAKKVYESQIEIMYASLSNGRAFN
B5: SEQ ID NO: 207: Dictyostelium discoideum carboxylate reductase (protein, listed as Dictyostelium discoideum)
chain: MINNWLAVGLLVVSGILAFNWKRKHPYGQTVEIGEKPENGGRIRRNSACADHLISFLEDDEIYTLYDSLVKSCKKYGERKCFGERKKDSNGNLGKFEWISYNTYLERCEYIQQGLCELGLKPKSKVGIFSKNRLEWLIVHSASFIQSYCVVSFYETLGVESLSYVTEHAEIGLAFCSAETLQKTLDIAKGVKVLKTIICFDSIDKEHYNIAKELGVTLYTYDEIMKKGKEANGKHKHTPPTPDTLSTIMYTSGTTGPPKGVMITHKNLTSVVCAVSDFIKVYDTDVHYSYLPYAHVLERVVILAAFHFGAAIGIFSGDISNILVEVKLLSPTLFIGVPRVFERIKTNVFKEISKKPALLRTLFNGAYNLKYLSIQHGFKLPIIEKVLDLVFFSKIKQALGGKVRVILSGSAPLSFDTEVFLRVVMCCCVLQGYGASEGCGGDACKRLDDESVGTIGPPFASNEIKLVDVPELGYDSNGEVQTGEVCLRGPSISSGYYKDEEKTREEFKDGWFHTGDIGRWNRDGSLSIVDRKKNIFKLSQGEYVAVEKIETIVVKSEYVEQVCIYGDSQKSCVIAIIHPHPESCSEWAGSKKTDKDIKEICKNQDFIKVVLDDIIKNCKKSGLHGFEIPKAIHLTPEAFSDQNNLLTPSFKLKRHEIKKYFEDEIKKLYSKLD
B6: SEQ ID NO: 211: Theileria parva carboxylate reductase (protein, listed as Theileria parva)
chain: MNHLYSVALEGTEEEGYTPVYRNPDYKDRLLSCEDYFDGKIQTGWDIFNRGLTLSRNKPFLGSRVKNADGTFGEFKFMTYGEVEDQIKHFGSGLLNLDKFKEVFVKEENQMVKMLGIYSQNTVEWLITEQVCNGYNLTLVPLYDTLGEESLLYIINVTKLNVIVCDYKCSLKLLDLLPKSNGSVSLVVVTGVDELPDQVTAKSQSLSSVTFKTYQEVVNFGKEDPLAFTPCTKDSIGTISYTSGVSGIPKGVIVKHFQHASLVVIVNRIVCDLEKTQLENPKVHLSYLPLSHMFERLYIGTSIIEGSVIGLFSGDVKNILEDIKALRPNVFPSVPRLYMRIHDKIFSTVSQKSFLIRSLFGLGLSRKLKKIRKTGVVTHRFWDKILFNKFNTLLGGRVNWMLTGSAPLSPKIFDNIRALFSIPLVSGYGLTETCAGAFHTERYEPDSTHVGGPVPCMEFRLKSLPDYNYYTTDKNPKGELLLRGNNIVTSYFSDDVTNKESFDENKWFLTGDIAELLPNGAIRIIDRRKNIFKLSQGEYISPEKIESILNTAPILCQSYVTGKSHFLNPVAVVVPDELELELWSKRYGLANLDRKEQCEVKQLKEFIAKEIEKVFENSDVKGFEKIKNFYVEHELFSIENNLLTTTSKLKRYNLSKKYAEQIDRLNDES
B7: SEQ ID NO: 209: Nocardia brasiliensis NBRC 14402 carboxylate reductase (protein)
chain: MERKAEVLAARRVEDLIERDAQVRAAIPDPVVTAELERADGSLAQTVARVMAGYADRPALGQRAVEFVPDENGCRRTRLLPWFDTITFGELWQRVGTVAAVWQSRAERSVRAGDFVAVLGSTGIDYTVVDLACTYSGAVPVPLQAGASPTQLAPIVREVEPKVLATDVGQLEVAVDLASAGDSVRSLLIFGLYAEDDEHCAAVESARRRLADTPVVVETIVELLASGQDRPAASLHASADPDELALLIYTSGSTGTPKGAMYTQRLLTNAWCAAGASPMPSIALSYLPMSHTMARQLLLTGLARGGTVYFAARNDMSTLFDDFALARPTLLGFVPRVCDMVLQRFQSEMARRVGADDEPTVVEQEVKTELREQFLGGRFLVASIGSAPLSADMREFMQSVLGIALIDAYGSTETGGVLMNNKVVRTAILDYKLVDVPELGYFSTDRPHPRGELLIKSRTLIPGYYKRPELNSQFFDAEGFYRTGDVMAQTGFDELVYVDRRNSVLKLSQGEFVAVSKLEAIFVGSPLVEQIYVYGSSERAYLLAVIVPVAEAIATHAGTAELKAAISESLRQIAKDAELSSYEVPRDFLLESEPFTVDNGLLAGLSKLLRPSLKERYGERLEALYRVAEAAQTQELAALRQQAGMLPVLETVSRAAQAVLGVSAAELRPDAHFTDLGGDSLAALSFSTLLQELLGVQVPVGVIASSANDLRRIANYAVAERSAGSLRPTSTGVHGTGSQLRAIDLRLDKFIDPSTLAAATTLPRAGEPRTVLLTGANGYLGRFLCLEWLQRLHHSGGTLICVVRGIDAVAARERLDEVFDSGDPELLHRYRELAEGTLEVLCGDISEPGLGLSERDWRRLADTVELIVHAAALVNHVLPYGQLFGPNVVGTAEIIRLAMTTRIKPVTYLSTVAVAAQVAPEQFTEDGDIREISAVRSLDEGYADGYGTSKWAGEVLLREAYDLCGLPVAVFRSDMILAHSRFAGQLNVSDMFTRLVLSVLATGVAPKSFYETDRMGNRQRAHYDGLPVDFTAQAITVLGSQVVSGFETFDVLNPHDDGLSLDEFVDWLIAAGHSIDRIDGYAEWLSRFGTALRVLSERQRQHSVLPLLHAYRRAAVPIPGAALPAKKFQAAVQDAQLGPGRDIPHLTPDLIEKYVSDLKLRNLL
modifications: Nocardia brasiliensis NBRC 14402
notes: Nocardia brasiliensis NBRC 14402 carboxylate reductase

The first experiment deals with heptanedioyl-ACP methyl ester. Description: Cell lysate in vitro thioesterase screen (DTNB, absorbance at 410 nm) on heptanedioyl-ACP methyl ester. Format: biochemical. Particulars: 0.33 mM acyl-ACP substrate, 30° C., 30 min.
As for B1, the “activity toward heptanedioyl-ACP methyl ester (hydrolysis)” value is given as “notable for their activity toward heptanedioyl-ACP methyl ester”.
Take B2: the “activity toward heptanedioyl-ACP methyl ester (hydrolysis)” value was “notable for their activity toward heptanedioyl-ACP methyl ester”.

In a further experiment the test system is heptanedioyl-ACP methyl ester.
Assay: not given
Particulars: top 150 hits screened in vivo. Format: cell-based, Escherichia coli.
As to B1, the “activity toward heptanedioyl-ACP methyl ester in vivo” value was “showed activity toward heptanedioyl-ACP methyl ester”.
As to B2, the “activity toward heptanedioyl-ACP methyl ester in vivo” value is “showed activity toward heptanedioyl-ACP methyl ester”.

Test system in a further experiment: not listed separately
Description: In vivo carboxylate reductase screening, substrate consumption by LC-MS, monomethyl heptanedioate. Format: cell-based, Escherichia coli. Particulars: 541 enzymes screened in vivo. The procedure: To screen carboxylate reductases in vivo, […] T7- pUC expression vectors was co-transformed into T7 Express lysY/Iq with the phosphopantetheinyl transferase sfp from Bacillus subtilis on a T7-pCDF expression vector. Biological duplicates of the resulting strains were incubated in 0.5 mL of terrific broth containing either 1 g/L heptanedioate or 1 g/L monomethyl heptanedioate and supplemented with 0.4 mM IPTG in 96-well deep well plates. The plates were incubated for 30 h at 30° C. in a shaking incubator. The cells were then pelleted, and culture supernatants from the same strains in media containing either heptanedioate or monomethyl heptanedioate were combined. The combined supernatants were analyzed by LC-MS to determine the concentration of heptanedioate and monomethyl heptanedioate. Carboxylate reductase activity on heptanedioate or monomethyl heptanedioate was reflected by consumption of the respective substrate in the medium.
As to B3, the monomethyl heptanedioate activity entry is “most monomethyl heptanedioate activity”.
B4: the monomethyl heptanedioate activity result is recorded as “most monomethyl heptanedioate activity”.
For B5, the monomethyl heptanedioate activity result is recorded as “most monomethyl heptanedioate activity”.
Regarding B6, the monomethyl heptanedioate activity entry is on record as “most monomethyl heptanedioate activity”.
In the case of B7, the monomethyl heptanedioate activity result is “most monomethyl heptanedioate activity”.
